Among the data in the RNAGym collection of RNA variant scans (doi:10.7554/elife.90254) are self-cleavage values, retold here.

B1: OR4K15 (parent)
chain: GUUAACGGUCAUAGGCCAUGGAAACUAGGAGCACCAUUUCGCUGCCAGUGAAGAAAUGAACAAAGAAAAUCUGGGCCAGGCAGGCAUCAAAAGAAAUAGUCUUGCGCUCAACCAGAAAGUCUGUAAUCAUUUUAAGGGUA

The series covers variants of B1. The experiment in a line: self-cleavage, relative activity (ratio to wild type); higher = more cleavage; in vitro, sequencing; the parent is a self-cleaving ribozyme.
For A52U A95G, the self-cleavage was 1.48.

On to A51U A78U, for which the self-cleavage stood at 0.36.

As for A51G A68C, the self-cleavage is 1.46. For A51G A68U the value was 1.9; for A51G A68G, 0.71; for A52C A111G, 0.

With A52G U132C, the self-cleavage was 1.84. Turning to A52G U132A, the self-cleavage was 0.88. For A51G A98G, the self-cleavage worked out at 0.29. For A51C U57G the value was 1.26; for A51U U102C, 1.99; for A52C U120C, 0.58. For A52U A91G the value was 1.13.

Consider A51U G74U, for which the self-cleavage stood at 0.25.

As to U49C A90G, the self-cleavage came out at 0.94. As to A52C U108C, the self-cleavage was determined as 0.03.

On to A52G U102A, for which the self-cleavage worked out at 0.89. For A52G U102C the value was 2.18; for U49G A90G, 0.75; for U49C U130A, 0.28.

On to A51G G65A, for which the self-cleavage is 1.12. For A51G G106A the value was 0. For U49C A111G the value was 0.02; for A52G G73A, 0.11; for A52G A98G, 0.8. Take A51G U97C: the self-cleavage was 1.75. As for A51U U57G, the self-cleavage is 0.64. Consider A52U A67G, for which the self-cleavage came to 0.87. For U49C A66G the value was 1.55; for A52G A116C, 0.11; for A52G A116G, 0.91. For A51G G74U the value was 0.37; for U49C A118G, 0.35. For U49C A118U the value was 0.62. As to A51G A118G, the self-cleavage amounted to 1.29. For U49C G119A the value was 1.6.

For the variant A52G C71G, the self-cleavage came out at 0.39. As for U49G, the self-cleavage was found to be 1.13. For A51U A117G the value was 2.45. For A51U A67G the value was 1.23. For A51U A67U the value was 2.12; for U49C U57A, 1.03; for U49C U57C, 0.57. As for A51G U87G, the self-cleavage stood at 0.43. With A51U U139A, the self-cleavage worked out at 1.14.

For A51G A59U, the self-cleavage was 1.74. For A51U U131A the value was 1.32; for U49C A68U, 1.95; for U49C A68C, 1.29. For the variant A52G U133A, the self-cleavage was 2.06. For A51U A110G the value was 0.23; for A51U G137A, 1.43; for A52G G79A, 0.27. As to U49C A67G, the self-cleavage worked out at 1.2. For A51G U72C the value was 0.38. For A51G U72G the value was 0.25; for A51U C76U, 0.33.

Turning to A51G U70C, the self-cleavage was found to be 0.95. For A51U A55U the value was 1.52; for A51U A91G, 0.5. For U49C A82U the value was 0.2; for U49C A82G, 0.42. For U49C A86G the value was 1.03; for U49C A86U, 1.68; for A52G U103A, 0.59.

As to A52C A60G, the self-cleavage came out at 1. For A51U A64G the value was 1.28; for A52G G138U, 2.54. For A52G A78G the value was 0.28; for A51G A56G, 1.22.

Regarding U49C C109U, the self-cleavage was 0.18. For U49C G138A the value was 1.86. For A52C A140G the value was 1.87. For A52G A55U the value was 1.51; for A52G A55C, 1.29; for A51G A94U, 1.78.

As for U49C U124C, the self-cleavage is 0.71. For G50U A114U the value was 0.08; for G50A G104A, 0.1. For A52C A54G the value was 1.34; for A51G A89U, 1.41; for A51G A89G, 0.95.

For A51G U127A, the self-cleavage was 2.09. For A51G U127C the value was 1.04. For A51U U87A the value was 1.92; for U49C A129G, 1.82; for A51C A52G, 1.83.

Regarding A51G A95G, the self-cleavage stood at 1.7. For A51C G99A the value was 0.94; for U49C A140G, 2.12; for A51G A78G, 0.2. For A52G U57A the value was 1.31; for A52G A126G, 0.47. For U49C A95G the value was 1; for A52G G75C, 0.13; for U49C G74A, 0.09. Regarding A51U U130A, the self-cleavage was found to be 1.4. For A51U U130C the value was 1.62; for A51G U120G, 2.37. For U49C A89C the value was 1.36. For the variant U49C A89G, the self-cleavage turned out to be 1.26. For A51C U124C the value was 0.98.

On to A52G U139G, for which the self-cleavage worked out at 1.6. As for A52G U139A, the self-cleavage is 1.5. For A52G U139C the value was 2.03; for A52G G74A, 0.13; for A51G G138C, 1.66. For A51U G83A the value was 2.1.

For the variant A52U A62G, the self-cleavage turned out to be 1.23. In the case of G50A A117G, the self-cleavage stood at 1.92. For A52G G104A the value was 0.04. For U49C A62G the value was 1.57; for G50C, 1.54. For G50A the value was 1.68. Take G50U: the self-cleavage came to 1.11. For A52C G75U the value was 0.33; for A52C A64G, 1.38.

As to A52G U108C, the self-cleavage came to 0.02.

Regarding A52G U108G, the self-cleavage turned out to be 0.03. With A52G U108A, the self-cleavage is 0.02. For A52G G123A the value was 0.48. For U49C U70A the value was 1.1; for A52G C109U, 0.71; for A52G U100G, 1.16. With A51G A67G, the self-cleavage was 1.07.

Regarding A51G U124G, the self-cleavage came out at 1.05. For U49G U132C the value was 1.1; for A52G C128A, 0.64. With A52C A68G, the self-cleavage was 0.55. For A51U C101U the value was 0.72; for A52U A110G, 0.19. For A52C A67U the value was 1.67; for A52G U122C, 1.45. For A52U A86G the value was 1.61; for U49C A94G, 1.44; for A52U A54G, 1.25. With A52G A111C, the self-cleavage is 0. For A52G A111G the value was 0.03; for U49G A114G, 0.06. For A51U A54G the value was 1.36; for U49C U120A, 1.64; for U49C U120C, 0.52.

Take U49G A92G: the self-cleavage came out at 0.7.

Consider U49C C121G, for which the self-cleavage was found to be 2.4. For A52G A96G the value was 1.64; for A52G A89G, 1.84.

A52G A89U: the self-cleavage was 1.7. For U49C U132A the value was 1.65; for A51C A78G, 0.24. For A51U A59G the value was 0.95; for A51G A60G, 1.2. Take A51U A52G: the self-cleavage came out at 0.93.

A51U A52U: the self-cleavage was 1.99. For A51U U72C the value was 0.23; for A51U U72A, 0.45. For A52G U130G the value was 0.81; for A52G U130A, 1.08; for A52G U130C, 0.75. For A52G A95U, the self-cleavage was found to be 1.37. Take A52G A95G: the self-cleavage was determined as 2.12. A51G U103C: the self-cleavage stood at 1.09.

Consider A52G A125G, for which the self-cleavage was 0.37.

As to A52G A125U, the self-cleavage is 0.86. For A52U A59G the value was 1.48; for A51G A86C, 0.65; for A51G A86U, 1.56. Turning to A51C U131C, the self-cleavage is 1.28.
